Assay results published in EP1073463B1.
Values belong to the substance of their own block, whether it stands above or below them.

What was measured:
[1] = target: human FcR; test: cell-based or functional assay
[2] = target: human CD3 on Jurkat cells (human) (UniProt P07766); test: competition with 125I-UCHT1 on Jurkat cells, competitor at 100 nM
[3] = target: human CD3 on Jurkat cells (human) (UniProt P07766); test: competition with 125I-UCHT1 on Jurkat cells, competitor at 1 nM
[4] = target: human CD3 on Jurkat cells (human) (UniProt P07766); test: cell-based or functional assay
[5] = target: human CD3 on Jurkat cells (human) (UniProt P07766); test: competition with 125I-UCHT1 on Jurkat cells, COS-7 preparation at 1 nM
[6] = target: human CD3 on Jurkat cells (human) (UniProt P07766); test: competition with 125I-UCHT1 on Jurkat cells, COS-7 preparation at 100 nM
[7] = target: human CD3 on Jurkat cells (human) (UniProt P07766); test: competition with 125I-UCHT1 on Jurkat cells, SP2/0 preparation at 100 nM
[8] = target: human CD3 on Jurkat cells (human) (UniProt P07766); test: competition with 125I-UCHT1 on Jurkat cells, SP2/0 preparation at 1 nM

Sequence of UniProt P07766 (P07766 23-207): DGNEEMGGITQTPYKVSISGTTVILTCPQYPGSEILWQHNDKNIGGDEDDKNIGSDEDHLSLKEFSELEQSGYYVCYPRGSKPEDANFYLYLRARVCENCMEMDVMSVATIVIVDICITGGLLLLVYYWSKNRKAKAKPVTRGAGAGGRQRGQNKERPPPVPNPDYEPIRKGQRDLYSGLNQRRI

- T-cell proliferation of human PBMCs ([3H]thymidine incorporation), concentration at peak [1]: 100 ng/mL
- T-cell proliferation of human PBMCs ([3H]thymidine incorporation), lowest active concentration [1]: 0.1 ng/mL
- % of 125I-UCHT1 bound to cells [2]: 0%
- % of 125I-UCHT1 bound to cells [3]: 80%
Substance: UCHT1 monoclonal antibody (anti-human CD3)

Substance: sFv-DT390, anti-CD3 single-chain immunotoxin with truncated diphtheria toxin (from UniProt P00588 33-422)
- IC50 (toxicity, inhibition of protein synthesis) [4]: 48 pM
- Protein synthesis (% of controls), Jurkat cells, 1 x 10^-10 M, no serum (% of controls) [4]: 18
- potency relative to UCHT1-CRM9 (fold of UCHT1-CRM9 potency) [4]: 0.0625

- % of 125I-UCHT1 bound to cells [5]: 80%
- % of 125I-UCHT1 bound to cells [6]: 0%
- % of 125I-UCHT1 bound to cells [7]: 0%
- % of 125I-UCHT1 bound to cells [8]: 80%
Substance: scUCHT1, chimeric anti-human CD3 single chain antibody (UCHT1 VL-linker-VH fused to human IgM Fc µCH2 to µCH4) (from UniProt P01871 106-453) (scFv)
